# Measurements: US20180037645A1 (Bristol-Myers Squibb, published 2018)
# Changes are numbered by the printed parent chain.
# B1: IL-23 alanine shave mutant M5 (ligand, human)
# chain 1: RAVPGGSSPAWTQCQQLSQKLCTLAWSAHPLVGAADLREEGDEETTNDVPHIQCGDGCDPQGLRDNSQFCLQRIHQGLIFYEKLLGSDIFTGAPSLAPASPVGQLHASLLGLSQLLQPEGHHWETQQIPSLSPSQPWQRLLLRFKILRSLQAFVAVAARVFAHGAATLSP
# chain 2: IWELKKDVYVVELDWYPDAPGEMVVLTCDTPEEDGITWTLDQSSEVLGSGKTLTIQVKEFGDAGQYTCHKGGEVLSHSLLLLHKKEDGIWSTDILKDQKEPKNKTFLRCEAKNYSGRFTCWWLTTISTDLTFSVKSSRGSSDPQGVTCGAATLSAERVRGDNKEYEYSVECQEDSACPAAEESLPIEVMVDAVHKLKYENYTSSFFIRDIIKPDPPKNLQLKPLKNSRQVEVSWEYPDTWSTPHSYFSLTFCVQVQGKSKREKKDRVFTDKTSATVICRKNASISVRAQDRYYSSSWSEWASVPCS
# B2: IL-23 alanine shave mutant M7 (ligand, human)
# chain 1: B1 chain 1 with A34H, A35M, A93E, A97L, A99D, W123A, E124A, T125A, Q126A, Q127A
# chain 2: B1 chain 2
# B3: IL-23 alanine shave mutant M10 (ligand, human)
# chain 1: B1 chain 1 with D36A, A93E, A97L, A99D, F144A
# chain 2: B1 chain 2
# B4: IL-23 alanine shave mutant M9 (ligand, human)
# chain 1: B1 chain 1 with A34H, A35M, A93E, Q104A
# chain 2: B1 chain 2
# Target: human IL-23Rα / human IL-12Rβ1 on BaF3 transfectants (human, UniProt Q5VWK5 24-629; P42701 24-662)
# Assay: cell-based or functional assay
# Chain of human IL-23Rα / human IL-12Rβ1 on BaF3 transfectants (Q5VWK5 24-629, chain 1 of 2, other chains not shown): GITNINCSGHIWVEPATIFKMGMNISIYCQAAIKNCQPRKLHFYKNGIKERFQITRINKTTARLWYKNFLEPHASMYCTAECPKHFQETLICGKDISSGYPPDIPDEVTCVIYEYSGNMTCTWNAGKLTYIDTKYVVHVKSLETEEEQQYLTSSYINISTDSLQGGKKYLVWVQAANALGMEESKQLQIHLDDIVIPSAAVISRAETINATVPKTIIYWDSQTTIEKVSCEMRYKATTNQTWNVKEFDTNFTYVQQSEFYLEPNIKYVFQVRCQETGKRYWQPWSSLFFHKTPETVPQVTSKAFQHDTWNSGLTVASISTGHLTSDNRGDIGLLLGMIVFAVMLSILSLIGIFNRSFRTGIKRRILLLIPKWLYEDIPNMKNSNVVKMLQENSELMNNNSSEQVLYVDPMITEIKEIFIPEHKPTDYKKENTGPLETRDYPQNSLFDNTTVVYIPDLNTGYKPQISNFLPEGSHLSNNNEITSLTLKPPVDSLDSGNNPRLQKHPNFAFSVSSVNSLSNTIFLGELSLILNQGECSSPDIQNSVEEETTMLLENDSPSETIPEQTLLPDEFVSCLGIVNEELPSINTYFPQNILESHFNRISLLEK
row,Binder,"EC50, pSTAT3 in BaF3/huIL-23Rα/huIL-12Rβ1 transfectants [pM]"
1,B1,26
2,B2,21
3,B3,19
4,B4,33
